Measurements from patent US20230002494A1 (SANYOU BIOPHARMACEUTICALS, published 2023).
Where a chain is given by its changes, count along the chain named.

B1: control antibody KN035 (antibody, V domains shown)
VH: QVQLVESGGGLVQPGGSLRLSCAASGFTFSRRCKAWFRQAPGKERERVAKILTTSGSTYLADSVKGRFTISRDNSKNTVYLQMNSLRAEDTAVYYCAADSFEDPTCTLVTSSGAFQYWGQGTLVTVSS
notes: also called KN035 (control); positive control KN035
B2: NB22D-21-huVH2 (Fc fusion, not shown: a dimerising Fc or GST)
chain: EVQLVESGGGLVQPGGSLRLSCAASRTDSNINGMHWYRQAPGKGREWVGTIFIDGNTIVTDSVKGRFTISRDNAKNTLYLQMNTLRAEDTAVYYCAADVSGYGRAWGQGTTVTVSS
notes: Humanized form of NB22D-21; also called humanized antibody NB22D-21-huVH2; D21-Vh2
B3: NB22D-21-17 VHH-Fc chimeric antibody protein (Fc fusion)
chain: B2 chain with D28G, N32Y, G55W
notes: not shown: human IgG1 Fc fragment, its N-terminus linked to the C-terminus of the VHH
B4: NB22D-21-8 VHH-Fc chimeric antibody protein (Fc fusion)
chain: B2 chain with D28Y, N32Y, D54G, G55S
notes: as for B3
B5: NB22D-21-24 VHH-Fc chimeric antibody protein (Fc fusion)
chain: B2 chain with D28F, N32F, D54T
notes: as for B3
B6: NB22D-21-4 VHH-Fc chimeric antibody protein (Fc fusion)
chain: B2 chain with S29R, G33T, G55L
notes: as for B3
B7: 47 (VHH)
VHH: B2 chain with D28L, N32R, G55L
notes: also called SY01-D21-47
B8: SY01-D21-8 (VHH lysate) (VHH)
VHH: B2 chain with D28Y, N32Y, D54G, G55S
B9: SY01-D21-24 (VHH lysate) (VHH)
VHH: B2 chain with D28F, N32F, D54T
B10: SY01-208 (VHH lysate) (VHH)
VHH: B2 chain with A24H, N32F, G55A
notes: Tested as VHH lysate of a monoclone from the phage display vector
B11: SY01-NB-027-M (VHH lysate) (VHH)
VHH: B2 chain with A24H, G33S, I51W, V99E, S100W, G101M
notes: as for B10
B12: SY01-201 (VHH lysate) (VHH)
VHH: B2 chain with A24H, N32H, G55L
notes: as for B10
B13: NB22D-21-123 (Fc fusion)
chain: B2 chain with R26P, D28A, N32H, T50M, D54T, N56L
notes: not shown: 'full-length antibodies' were constructed
B14: NB22D-21-45-106 (Fc fusion)
chain: B2 chain with T27R, D28W, N32H, T50S, I51R, D54T, S100R
notes: as for B13
B15: NB22D-21-154 (Fc fusion)
chain: B2 chain with D28A, I31A, N32M, T50M, I53R, S100R
notes: as for B13
B16: NB22D-21-109 (Fc fusion)
chain: B2 chain with D28A, S29G, N30Y, N32H, T50M, I53G, D54W, S100R
notes: as for B13
B17: NB22D-21-huVH1 (Fc fusion, not shown: a dimerising Fc or GST)
chain: B2 chain with A24H
notes: Humanized form of NB22D-21; also called humanized antibody NB22D-21-huVH1
B18: NB22D-21-94 (Fc fusion)
chain: B2 chain with D28A, S29G, N32H, T50S, D54T, S100R
notes: as for B13

target: T1, rhesus monkey PD-L1 (full-length, on CHO-s cells) (rhesus monkey, UniProt F6VEW6 19-290); assay: FACS, monkey PD-L1-CHO cells
T1 construct: whole, on cells; also called monkey PD-L1-CHO
Text: In order to evaluate the cross-reactivity of the VHH-Fc candidate antibodies to monkey PD-L1 and mouse PD-L1, an FACS method is used to detect the binding activity thereof to the mouse and rhesus monkey PD-L1 protein on cells.

Row | Binder | EC50 [µg/mL]
1 | B1 | 0.21

target: T2, human PD-L1 (full-length, on cells) (human, UniProt Q9NZQ7 19-290); assay: FACS, human PD-L1-CHO cells
T2 construct: whole, on cells; Expressed on CHO-s cells; also called human PD-L1-CHO; PD-L1-CHO
T2 sequence (Q9NZQ7 19-290): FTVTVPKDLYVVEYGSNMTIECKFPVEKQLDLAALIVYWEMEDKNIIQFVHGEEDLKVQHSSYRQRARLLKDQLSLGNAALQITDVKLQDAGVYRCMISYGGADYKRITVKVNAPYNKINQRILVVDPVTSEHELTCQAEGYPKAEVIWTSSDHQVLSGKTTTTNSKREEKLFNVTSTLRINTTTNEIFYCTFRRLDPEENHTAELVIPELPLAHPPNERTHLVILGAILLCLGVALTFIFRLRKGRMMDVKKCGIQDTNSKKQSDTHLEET

Row | Binder | EC50 [µg/mL]
2 | B1 | 0.39

target: T2, human PD-L1 (full-length, on cells); assay: FACS, human PD-L1-CHO cells; remark: another data set of the same source
Text: (§1) In order to evaluate 4 derisked VHH-Fc candidate antibodies, an FACS method is used to detect the binding activities thereof to cell expressed human PD-L1 and monkey PD-L1 proteins.

Row | Binder | EC50 [µg/mL]
3 | B2 | 0.72
4 | B3 | 1.73
5 | B4 | 0.26
6 | B5 | 0.14
7 | B6 | 0.21

target: T2, human PD-L1 (full-length, on cells); assay: FACS blocking on PD-L1-CHO cells, lysate samples; the blocked ligand is not named on the sheet or in Example 17

Row | Binder | IC50 (read off the curve) [µg/mL]
8 | B7 | ~0.3
9 | B8 | ~0.3
10 | B9 | ~0.5

target: T2, human PD-L1 (full-length, on cells); assay: FACS competition, human PD-L1-CHO cells, competitor biotin-labeled PD-1-Fc 1 µg/mL

Row | Binder | IC50 [µg/mL]
11 | B1 | 0.39

target: T2, human PD-L1 (full-length, on cells); assay: FACS on PD-L1-CHO cells, anti-Llama IgG FITC

Row | Binder | binding result
12 | B10 | binds
13 | B11 | binds
14 | B12 | binds

target: T3, mouse PD-L1 (full-length, on CHO-s cells) (mouse, UniProt Q9EP73 19-290); assay: FACS on mouse PD-L1-CHOK cells
T3 construct: whole, on cells; also called mouse PD-L1-CHO
T3 sequence (Q9EP73 19-290): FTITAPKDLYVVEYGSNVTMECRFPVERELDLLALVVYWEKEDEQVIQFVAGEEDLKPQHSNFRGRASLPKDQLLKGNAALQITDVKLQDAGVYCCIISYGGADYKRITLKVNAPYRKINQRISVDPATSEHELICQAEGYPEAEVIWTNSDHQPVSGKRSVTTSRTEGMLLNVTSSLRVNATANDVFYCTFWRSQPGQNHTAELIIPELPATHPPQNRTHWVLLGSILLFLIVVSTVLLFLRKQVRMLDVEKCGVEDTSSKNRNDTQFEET

Row | Binder | binding result | EC50 (read off the curve) [µg/mL]
15 | B13 | binds | –
16 | B14 | binds | –
17 | B15 | binds | –
18 | B16 | – | ~1
19 | B6 | no binding (tested: 20 µg/mL) | –

target: T2, human PD-L1 (full-length, on cells); assay: FACS competition, human PD-L1-CHO cells, competitor biotin-labeled PD-1-Fc 1 µg/mL; remark: another data set of the same source

Row | Binder | IC50 [µg/mL]
20 | B2 | 1
21 | B5 | 0.2
22 | B6 | 0.3

target: T2, human PD-L1 (full-length, on cells); assay: FACS competition, human PD-L1-CHO cells, competitor biotin-labeled CD80 1 µg/mL

Row | Binder | IC50 [µg/mL]
23 | B1 | 0.631

target: T2, human PD-L1 (full-length, on cells); assay: FACS on human PD-L1-CHO cells, PE anti-human IgG Fc
Text: 1) collecting the cultured human PD-L1-CHO cells, centrifuging the collected cells at 300 g to remove the supernatant, resuspending the cells in a formulated FACS buffer and counting the cells, and adjusting the density of the cell suspension to 2×10⁶ cells/mL;

Row | Binder | EC50 (read off the curve) [µg/mL]
24 | B2 | ~0.1
25 | B17 | ~0.1
26 | B1 | ~0.1

target: T2, human PD-L1 (full-length, on cells); assay: FACS blocking on huPDL1-CHO cells; blocked ligand PD-1-Biotin 1 µg/mL; MFI = bound PD-1

Row | Binder | IC50 (read off the curve) [µg/mL]
27 | B18 | ~0.2
28 | B13 | ~0.2
29 | B14 | ~0.2
30 | B15 | ~0.2
31 | B16 | ~0.2
32 | B6 | ~0.2
33 | B1 | ~0.2

target: T1, rhesus monkey PD-L1 (full-length, on …); assay: FACS, monkey PD-L1-CHO cells; remark: another data set of the same source
Text: as §1

Row | Binder | EC50 [µg/mL]
34 | B2 | 1.82
35 | B3 | 3.25
36 | B4 | 0.7
37 | B5 | 0.39
38 | B6 | 0.3

target: T2, human PD-L1 (full-length, on cells); assay: FACS on huPD-L1-CHOK cells

Row | Binder | EC50 (read off the curve) [µg/mL]
39 | B18 | ~0.2
40 | B13 | ~0.2
41 | B14 | ~0.2
42 | B15 | ~0.2
43 | B16 | ~0.2
44 | B6 | ~0.2
45 | B1 | ~0.2
